In the nanobody polyreactivity screen of Harvey et al. (2022):

Assay: yeast display, Sf9 membrane polyspecificity reagent, FACS + sequencing; frameworks hold sequencing errors
Outline: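 A nanobody's polyreactivity label depends on the gate it was sorted from. Yeast display cells were stained with 10% biotinylated, detergent-solubilized Sf9 membrane reagent for 1 hour at 4 °C, enriched on streptavidin microbeads and sorted by FACS. The low and high (top ~1%) gates were set on anti-HA fluorescence for expression and streptavidin fluorescence for reagent binding.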

| Sequence | polyreactivity (PSR sort gate) |
| --- | --- |
| QVQLVESGGGLVQEGGSLRLSCAASGSTFEYNAMGWYRQAPGKERELVADISWRGGGTYYADSVKGRFTISRDNAKNTVYLQMNSLKPEDTAVYYCNTVSRNGFYRTRHDYWGQGTQVTVSS | low polyreactivity |
| QVQLVESGGGIVQAGGSLRLSCAASGFIFQRYVMGWYRQEPGKERQLVAAISSGGSTNYADSVKGRFTISRDNAKNTVYLQMNSLKAEDTAVYYFAADGFYYRNWGRFRYYYWGLGTQVTVSS | low polyreactivity |
| QVQLVESGGGLVQAGGSLRLSCAASGITFPYYAMGWYRQAPGKERELVAAINGNGGRTYYADSVKGRFTISRDNAKNNVYLDMNSLKPEDTAVYYCADRVVHVKGPRMDYWGQGTQVTLSS | high polyreactivity |
| QVQLVESGGGLVQAGGSLRLSCAASGRIFSPNAMGWYRQAPGKERELVAVSSWRGVSTYFADSVKGRFTISRDNAKNTVYLQMNSLKPEDTAVYYCAVDNKSVYYWRQYYYWGQGTQVTVSS | high polyreactivity |
| QDQLVESGGGLVQAGGSLRLSCAASGSTIYAYAMGWYRQAPGKERELVARIRWRGGRTYYADSVKGRFTISRDNAKNTVYLRMNSLKPEDTAVYYCAAYKRRSNGRYWTYDYWGQGTQVTVSS | high polyreactivity |
| QVQLVESGGGLVQAGGSLRLSCAASGYIFPYNAMGWYRQAPGKERELVAAISASGGTTYYADSVKGRFTISRDNAKNTVYLQMNSLKPEDTAVYYCAASFAVTSGHHYEYWGQGTQVTVSS | high polyreactivity |
| QVQLVESGGGLVQAGGSLRLSCAASGINFRTYAMGWYRQAPGKERELVAAINSDGSTYYADSVKGRFTISRDNAKITVYLQMNSLKPEDNAVYYCAAVVWRIHAYYWAVDGWYYYWGQGTQVTVSS | high polyreactivity |
| QVQLVESGGGLVQAGGSLRLSCAASGRTFTPNAMGWYRQAPGKEREFVAAITYSGGSTRYADSVKGRFTISRDNAKNTVYLQMNSLKPEDTAVYYCAKGYFYYVYTEDDGYWGQGTQVTVSS | low polyreactivity |
| QVQLVESGGGLVQAGGSLRLSCAASGSIFRSYAMGWYRQAPGKERELVAAISWRGGRTYYADSVKGRFTISRDNAKNTVYLQMNSLKPEDTAVYYCAVDFYVYRWSPYGDVYRYDYWGQGTQVTVSS | high polyreactivity |
| QGQLVESGGGLVQAGGSLSLSCAASGFTFRYYTMGWYIQAPGKERALVASISRRGGSTYYADSVKGRFTISRDNAMNTVYLQMHSLKPEGTAVYYCNPLSQVFASRAPKFDYWGQGTQVTVSS | high polyreactivity |
| QVQLVESAGGLVQAGGSLRLSCDASGRILKYYDIGWYRQAPGKEWELVAAISVSGTSTYYADSVKGRFTISRDNAKNTVYLQMNSLKPEDTAVYYCATATGRYSFDYWGQGTQVTVSS | low polyreactivity |
| KVQLVESGGGLVQAGGSLRLSCAASGSTFRTYAMGWYRQAPGKERELVADITWRGGSTYYADSVKGRFTISRDNAKNTDYFQMNSLKPEDTAVYYCATDRGPEVVLYVYWGQGTQVTVSS | low polyreactivity |
| QVQLQESGGGLVQAGGSLRLSCAASGTISLGDNMGWYRQAPGKEREFVATISVGGITYYVDSVKGRFTISRDIAKNTVYLQMNSLKPEDTAVYYCAALDIYYFRYYYWGQGTQVTVSS | low polyreactivity |
| QVQLVESGGGLVQAGGSLRLSCAASGFTFYRYGMGWYRPPPGKERELVAAINNDGTTNYADSVKGRFTISRDNAKNTVYLQLNSLKPEDTAVYYCAADYYRGRYSYRYDYWGQGTQVTVSS | low polyreactivity |
| QLQLVESGGGLVQAGGSLRLSCAASGSIFFSYAMGWYRQAPGKERELVAAIDYSGGGTYYADSVKGRFTISRDNAKNTVYLQMNSLKPEDTAVYYCNSDTEVWADTFISYRALNYWGQGTQVTVSS | low polyreactivity |
| QVQLVESGGGLVQAGGSLRLSCAASGGTFSCYAMGWYRQAPGKERELVAAITRRGGRTYYADSVKGRFTISRDNAKNTVYLQMNSLKPEDTAVYYCNTDYKFDYVGFSTWVVRYDYWGQGTQVTVSS | low polyreactivity |
| QVHLVESGGGLVQAGGSLRLSCAASGYIFQYYAMGWSRQAPGKERELVAAITGGGSTKYADSVKGRFTISRDNAKNTVYLHMNSLKPEDTAVYYCAASLWYRISKYDYWGLGTQVTVSS | high polyreactivity |
| QVQLVESVGGLVQAGGSLRLSCSASGSIFWYNAMGWYRQAPGKERELVAAISRGGSTKYADSVKGRFTISRDNAKNTVYLQMNSLKPEDTAVYYCAARYYRSSQGWTYDYWGKGTQVTVSS | low polyreactivity |
| QVQLVESGGGLVQAGGSLRLSCAASGRTFGSYTMGWYRQAPGKERELVAAITSGGRTNYADSVKGRFTLSRDNAKNTVYLQMTSLKPEATAVYYCAAGLRGGRYRYFAYDYWGQGTQVTVSS | high polyreactivity |
| QVQLVESGGGLVQAGGSLRLSCAASGFIFERYTMGWYRQAPGKERELVAAISDSGGSTYYADSVKGRFTISRDNAKNTVYLQMNSLKPEDTAVYYCATTQYTTYGRRYYWGQGTQVTVSS | high polyreactivity |

| Sequence | polyreactivity (PSR sort gate) |
| --- | --- |
| QVQHVESVGCLVQAAGSLPLSCAASGSTFSSYAMGWYRQAPGKERELVAAISTSGGSTYYADSVKGRFTISRDNAKNTVYLQMNSLKQEDTAVYYCYAGPSYYPFFWPDFEYWVQGTQVTVSS | high polyreactivity |
| QVQLVESGGGLVQAGGSLRLSCAASGRTFIRYAMGWYRQAPGNERELVAAISWSGDRTYYADSVKGRFTISRDNAKNTVYLQMNSLKPEDTAVYYCNAYRYLRTATFLKFDYWGQGTQVTVSS | high polyreactivity |
| QVQLVESGGGLVQAGGSLRLSCAASGFTFGVYTMGWYRQAPGKETELVASISWDGGSTYYADSVKGRFTISRDNAKNTVYLQMNSLKPEDTAVYYCAKGSSFYYGYDYWGQGTQVTVSS | low polyreactivity |
| QVQLVESGGGLVQAGGSLRLSCAASGFTFVHYAMGWYRQAPGKETELVAAISSGGSTYYADSVKGRFTISRDNAKNTVYLQLNSLKAEDTAVYYCAALKYSRGVRYGYWGQVTQVTVSS | high polyreactivity |
| QDQLVESGGGLVQAGGSLLLSCAASGSTFYDYVMGWYRQAPGKERELVADISSGGGTNYADSLKGRFTISRDNAKNTVYLQMNSLKPEDTAVYYCAAYRYFFWYEFVSWGQGTQVTVSS | high polyreactivity |
| QVQLVESGGGLVQAGGSLRLSCAASGSIFYVYVMGWYRPAPGKERELVAGITSGGSTYYADSVKGRFTISRDNAKNTVYFQMNSLKPEDTAVYFCAADLYYWGDYDYWGQGSQVTVSS | low polyreactivity |
| QVQLVESGGGLDQAGGSLRLSCAASGFIFYRYAMGWYRQAPGKERELVAAINWSGGGTYYADSVKGRFTISRDNAKNTVYLQMNSLKPEDTAVYYCAAVRSFRGSYWYEYWGQGTKVTVSS | high polyreactivity |
| QVQLVESGGGLVQAGGSLRLSCAASGFTLRLYTMGWYIQAPGKERELVAAISRSGGSTYYADSVKGRFTISRDNAKNTVYLQMNSLKPEDPAVYYCNAKNGRPGFNMYHWGQGTQVTVSS | high polyreactivity |
| QVQLVESGVRLVQAGGSLRLTCAASGNTFVAYAMGWYRQAPGKERDLVAGITRGGTTYYADSVKGRFTISRDNAKNSVYLQMNSLKPEDTAEYDCAARLGYRYNYWGQGTQVTVSS | high polyreactivity |
| QVQLVESGGGLVQAGGSLRLSCAASGRIFKRYTMGWYRQAPGKERELVAGITFSGGSTYYADSVKGRFTISRDNAKNTVYLQMNSLKPEDTAVYDCNARVPPQGWGPWKAFDYWGQGTQVTVSS | low polyreactivity |
| QVQLVESGGGLVQAGGSLRLSCAASGSTFVGYAMGWYRQAPGKERELVAGITASGTNTYYADSVKGRFTISRDNAKNTVYLQMNSLKPEDTAVYYCAAAFVRPPPYVGYSRFDYWGQGTQVTVSS | high polyreactivity |
| QVQHVESGGGLVQAGGSLRLSCAASGSIFLPYAMGWYRQAPGKQRELVAAISDRGSTYYADSVKGRFTISRDNAQNTVYLHMNSVKAEDTAVYYCAKVYLLFVGALQFDYWGQGTQVTVSS | low polyreactivity |
| QVQLVESGGGLVQAGGSLRLSCAASGSIFFAYAMGRYRQAPGKERELVAAITSGVSTNYADSVKGRFTISRDNAKNTVYLQMNILKPEDTAVYFCNADFDYGFDAGVAVQVVINVYWGQGTEVTVSS | low polyreactivity |
| QVQLVESGGGLVQAGGSLRLSCAASGRTFNAYAMGWYRQAPGKERELVAAISSGGSTYYADSVKGRFTISRDNAKYTVYLQMNSLKPEDTAVYYCNKVYGWRQFDYWGQGTQVTVSS | high polyreactivity |
| QVQLVESGGCLVQAGGSLSLSCAASGRIFGAYAMGWYRQAPGTERELVAAISSGGSTYYADSVKGRFTISRDNAKNTVYLQMNSLKPEDTAVYYCAASSGNGYGYWGQGTQVTVSS | high polyreactivity |
| QVQLVESGGGLVQAGGSLRLSCAASGRTFLLNAMGWYRQAPGKERELVAAISRGGSTYYADSVKGRFTISRDNAKNTVYLQMNSLKPEDTAVYYCAARFWISHTHWDAGDYWGQGTQVTVSS | low polyreactivity |
| QVQIVESGGGLVQAGGSLRLSCAPSGRIFRKYAMGWYRQAPGKERELVAAISVGGGSTRYADSVKGRFTISRDNAKNTVYLQMNSLKPEDTAVYYCAVKWFSGGYDYWGQGTQVNVSS | low polyreactivity |
| QVQLVESGGGLVQAGGSLRLSCAASGRTFTGYAMGWYRQAPGKERELVAAISASGGSTYYADSVKGRFTISRDNAKNTVYLQMNSLKPEDTAVYYCAAESWYSVLWEEGYDYWGQGTQVTVSS | low polyreactivity |
| QVQLVESGGGLVQAGGSLRLSCAASGLIFPWTYAMGWYRQAPGKEREFVAAITSSDGSTYYADSVKGRFTISRDNAKNTVYLQMNSLKPEDTAVYYCAAVGWDYDWDYYYWGQGTQVTVSS | high polyreactivity |
| QVQLVESGGGLVQAGGSLRLSCAASGITLYKYAMGWYRQAPGKERELVASISRSGGSTYYADSVKGRFTISRDNAKNTVYLQMNSLKPEDTAVYYCNARAKSYRFGYWGQGTQVTVSS | high polyreactivity |
